Results: PMC3399738

Tests used:
RPA (human heterotrimer) [1] = molecular target: T1, RPA (human heterotrimer) (human, UniProt P27694;P15927;P35244 1-616;1-270;1-121); experiment: EMSA
SSB = SSB (Escherichia coli, UniProt P0AGE0 1-178); experiment: pull-down
RPA (human heterotrimer) [2] = molecular target: T1, RPA (human heterotrimer); experiment: pull-down
RPA (human heterotrimer) [3] = molecular target: T1, RPA (human heterotrimer); experiment: EMSA; remark: listed apart in the source

T1 sequence (P27694 whole entry, chain 1 of 3): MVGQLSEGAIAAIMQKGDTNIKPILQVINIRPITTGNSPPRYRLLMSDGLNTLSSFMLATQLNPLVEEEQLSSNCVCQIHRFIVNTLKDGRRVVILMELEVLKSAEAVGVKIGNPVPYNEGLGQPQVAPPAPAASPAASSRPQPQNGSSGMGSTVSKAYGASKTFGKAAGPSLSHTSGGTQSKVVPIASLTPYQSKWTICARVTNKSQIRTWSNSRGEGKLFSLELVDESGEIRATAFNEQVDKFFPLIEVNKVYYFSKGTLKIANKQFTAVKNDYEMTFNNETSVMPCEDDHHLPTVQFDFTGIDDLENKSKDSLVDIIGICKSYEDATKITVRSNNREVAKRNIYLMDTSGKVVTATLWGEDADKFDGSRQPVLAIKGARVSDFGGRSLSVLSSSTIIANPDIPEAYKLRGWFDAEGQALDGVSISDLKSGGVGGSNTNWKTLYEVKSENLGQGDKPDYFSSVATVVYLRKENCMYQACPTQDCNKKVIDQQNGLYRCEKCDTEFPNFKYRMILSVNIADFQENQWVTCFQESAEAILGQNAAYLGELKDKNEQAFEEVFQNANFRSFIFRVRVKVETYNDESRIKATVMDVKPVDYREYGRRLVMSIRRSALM
T1 sequence (P15927 whole entry, chain 2 of 3): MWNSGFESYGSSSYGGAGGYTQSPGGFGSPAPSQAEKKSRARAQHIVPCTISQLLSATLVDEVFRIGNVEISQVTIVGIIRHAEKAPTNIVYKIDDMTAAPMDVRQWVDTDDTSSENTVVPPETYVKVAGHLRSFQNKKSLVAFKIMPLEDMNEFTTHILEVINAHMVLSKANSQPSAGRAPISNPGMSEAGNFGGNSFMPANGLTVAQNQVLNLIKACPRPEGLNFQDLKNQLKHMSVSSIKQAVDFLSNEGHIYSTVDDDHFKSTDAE
T1 sequence (P35244 whole entry, chain 3 of 3): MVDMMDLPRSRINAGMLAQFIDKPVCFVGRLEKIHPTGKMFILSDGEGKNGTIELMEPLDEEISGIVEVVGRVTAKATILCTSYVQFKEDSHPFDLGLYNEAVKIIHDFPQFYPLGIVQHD
Sequence of SSB (P0AGE0 whole entry): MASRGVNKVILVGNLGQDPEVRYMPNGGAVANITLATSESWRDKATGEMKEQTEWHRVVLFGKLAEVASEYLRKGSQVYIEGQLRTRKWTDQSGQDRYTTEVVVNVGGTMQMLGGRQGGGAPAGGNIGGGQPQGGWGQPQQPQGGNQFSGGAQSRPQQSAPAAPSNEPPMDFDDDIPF

## TTTTTTTTTTTTTTTTTTTTTTTTTTTTTT (ssDNA) [polyT(30) 5' IRDye-700]
RPA (human heterotrimer) [1]
  binding result: binds

## TTTTTTTTTTTTTTTTTTTTTTTTTTTTTT (ssDNA) [polyT(30) 3' biotin]
SSB
  binding result: binds
RPA (human heterotrimer) [2]
  binding result: binds

B1: dT30/dA30 duplex (dsDNA)
DNA 1: TTTTTTTTTTTTTTTTTTTTTTTTTTTTTT
DNA 2: AAAAAAAAAAAAAAAAAAAAAAAAAAAAAA
RPA (human heterotrimer) [3]
  binding result: binds
